Experimental data published in patent US20140248636.

B1: Mina53 (A26-V465), N-terminally hexa-His tagged, recombinant (protein)
chain: AAGGPSALNFDSPSSLFESLISPIKTETFFKEFWEQKPLLIQRDDPALATYYGSLFKLTDLKSLCSRGMYYGRDVNVCRCVNGKKKVLNKDGKAHFLQLRKDFDQKRATIQFHQPQRFKDELWRIQEKLECYFGSLVGSNVYITPAGSQGLPPHYDDVEVFILQLEGEKHWRLYHPTVPLAREYSVEAEERIGRPVHEFMLKPGDLLYFPRGTIHQADTPAGLAHSTHVTISTYQNNSWGDFLLDTISGLVFDTAKEDVELRTGIPRQLLLQVESTTVATRRLSGFLRTLADRLEGTKELLSSDMKKDFIMHRLPPYSAGDGAELSTPGGKLPRLDSVVRLQFKDHIVLTVLPDQDQSDEAQEKMVYIYHSLKNSRETHMMGNEEETEFHGLRFPLSHLDALKQIWNSPAISVKDLKLTTDEEKESLVLSLWTECLIQVV
B2: NO66 (A116-N641), N-terminally hexa-His tagged, recombinant (protein)
chain: QTPSARLVPASAPPARLVEVPAAPVRVVETSALLCTAQHLAAVQSSGAPATASGPQVDNTGGEPAWDSPLRRVLAELNRIPSSRRRAARLFEWLIAPMPPDHFYRRLWEREAVLVRRQDHTYYQGLFSTADLDSMLRNEEVQFGQHLDAARYINGRRETLNPPGRALPAAAWSLYQAGCSLRLLCPQAFSTTVWQFLAVLQEQFGSMAGSNVYLTPPNSQGFAPHYDDIEAFVLQLEGRKLWRVYRPRVPTEELALTSSPNFSQDDLGEPVLQTVLEPGDLLYFPRGFIHQAECQDGVHSLHLTLSTYQRNTWGDFLEAILPLAVQAAMEENVEFRRGLPRDFMDYMGAQHSDSKDPRRTAFMEKVRVLVARLGHFAPVDAVADQRAKDFIHDSLPPVLTDRERALSVYGLPIRWEAGEPVNVGAQLTTETEVHMLQDGIARLVGEGGHLFLYYTVENSRVYHLEEPKCLEIYPQQADAMELLLGSYPEFVRVGDLPCDSVEDQLSLATTLYDKGLLLTKMPLALN

| Protein | extent of peptide hydroxylation by MALDI-TOF (RpL27a31-50 peptide (…)) | mass increase of the peptide by MALDI-TOF (hydroxylation) (RpL27a31-50 peptide (…)) | extent of peptide hydroxylation by MALDI-TOF (RpL8 209-228 peptide (…)) | mass increase of the peptide by MALDI-TOF (hydroxylation) (RpL8 209-228 peptide (…)) |
| --- | --- | --- | --- | --- |
| B1 | hydroxylated to ˜95% as tested by MALDI-TOF analyses | displayed a 16 Da increase in mass |  |  |
| B2 |  |  | hydroxylated to ˜85% as tested by MALDI-TOF analyses | displayed 16 Da increase in mass |
